# Measurements: IntAct's records for PubMed 19357306
# B1: Aurora kinase A (Homo sapiens), O14965 (parent)
# chain: MDRSKENCISGPVKATAPVGGPKRVLVTQQFPCQNPLPVNSGQAQRVLCPSNSSQRIPLQAQKLVSSHKPVQNQKQKQLQATSVPHPVSRPLNNTQKSKQPLPSAPENNPEEELASKQKNEESKKRQWALEDFEIGRPLGKGKFGNVYLAREKQSKFILALKVLFKAQLEKAGVEHQLRREVEIQSHLRHPNILRLYGYFHDATRVYLILEYAPLGTVYRELQKLSKFDEQRTATYITELANALSYCHSKRVIHRDIKPENLLLGSAGELKIADFGWSVHAPSSRRTTLCGTLDYLPPEMIEGRMHDEKVDLWSLGVLCYEFLVGKPPFEANTYQETYKRISRVEFTFPDFVTEGARDLISRLLKHNPSQRPMLREVLEHPWITANSSKPSNCQNKESASKQS
# Variants of: B1
# Settings: with ince_human INCENP
row,Variant,effect of a mutation on the interaction
1,MDRSKENCISGPVKATAPVGGPKRVLVTQQFPCQNPLPVNSGQAQRVLCPSNSSQRIPLQAQKLVSSHKPVQNQKQKQLQATSVPHPVSRPLNNTQKSKQPLPSAPENNPEEELASKQKNEESKKRQWALEDFEIGRPLGKGKFGNVYLAREKQSKFILALKVLFKAQLEKAGVEHQLRREVEIQSHLRHPNILRLYAYFHDATRVYLILEYAPLGTVYRELQKLSKFDEQRTATYITELANALSYCHSKRVIHRDIKPENLLLGSAGELKIADFGWSVHAPSSRRTTLCGTLDYLPPEMIEGRMHDEKVDLWSLGVLCYEFLVGKPPFEANTYQETYKRISRVEFTFPDFVTEGARDLISRLLKHNPSQRPMLREVLEHPWITANSSKPSNCQNKESASKQS [G198A],disrupting interaction strength
2,MDRSKENCISGPVKATAPVGGPKRVLVTQQFPCQNPLPVNSGQAQRVLCPSNSSQRIPLQAQKLVSSHKPVQNQKQKQLQATSVPHPVSRPLNNTQKSKQPLPSAPENNPEEELASKQKNEESKKRQWALEDFEIGRPLGKGKFGNVYLAREKQSKFILALKVLFKAQLEKAGVEHQLRREVEIQSHLRHPNILRLYVYFHDATRVYLILEYAPLGTVYRELQKLSKFDEQRTATYITELANALSYCHSKRVIHRDIKPENLLLGSAGELKIADFGWSVHAPSSRRTTLCGTLDYLPPEMIEGRMHDEKVDLWSLGVLCYEFLVGKPPFEANTYQETYKRISRVEFTFPDFVTEGARDLISRLLKHNPSQRPMLREVLEHPWITANSSKPSNCQNKESASKQS [G198V],disrupting interaction strength
3,MDRSKENCISGPVKATAPVGGPKRVLVTQQFPCQNPLPVNSGQAQRVLCPSNSSQRIPLQAQKLVSSHKPVQNQKQKQLQATSVPHPVSRPLNNTQKSKQPLPSAPENNPEEELASKQKNEESKKRQWALEDFEIGRPLGKGKFGNVYLAREKQSKFILALKVLFKAQLEKAGVEHQLRREVEIQSHLRHPNILRLYLYFHDATRVYLILEYAPLGTVYRELQKLSKFDEQRTATYITELANALSYCHSKRVIHRDIKPENLLLGSAGELKIADFGWSVHAPSSRRTTLCGTLDYLPPEMIEGRMHDEKVDLWSLGVLCYEFLVGKPPFEANTYQETYKRISRVEFTFPDFVTEGARDLISRLLKHNPSQRPMLREVLEHPWITANSSKPSNCQNKESASKQS [G198L],disrupting interaction strength

# Variants of: B1
# Settings: with tpx2_human TPX2, Q9ULW0
# tpx2_human TPX2, Q9ULW0, sequence (Q9ULW0 whole entry): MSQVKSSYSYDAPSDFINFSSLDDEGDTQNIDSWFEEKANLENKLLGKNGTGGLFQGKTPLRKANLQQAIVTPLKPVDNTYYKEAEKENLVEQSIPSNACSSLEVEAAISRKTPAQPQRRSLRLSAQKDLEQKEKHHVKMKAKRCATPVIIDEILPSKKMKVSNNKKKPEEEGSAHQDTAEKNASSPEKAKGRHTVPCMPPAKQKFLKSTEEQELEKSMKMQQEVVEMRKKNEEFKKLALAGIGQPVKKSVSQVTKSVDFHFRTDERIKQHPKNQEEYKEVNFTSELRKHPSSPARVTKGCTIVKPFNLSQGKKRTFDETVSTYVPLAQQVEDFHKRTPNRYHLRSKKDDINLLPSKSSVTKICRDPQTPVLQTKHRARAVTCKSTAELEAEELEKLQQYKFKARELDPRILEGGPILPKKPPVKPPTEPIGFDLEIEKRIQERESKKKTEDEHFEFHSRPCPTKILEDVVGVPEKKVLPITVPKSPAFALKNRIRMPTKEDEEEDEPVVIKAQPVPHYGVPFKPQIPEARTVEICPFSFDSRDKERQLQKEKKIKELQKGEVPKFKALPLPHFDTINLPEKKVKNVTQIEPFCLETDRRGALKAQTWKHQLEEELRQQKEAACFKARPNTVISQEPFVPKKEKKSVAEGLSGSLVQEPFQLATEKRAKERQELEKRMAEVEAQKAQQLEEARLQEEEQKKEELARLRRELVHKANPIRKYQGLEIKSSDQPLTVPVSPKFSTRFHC
row,Variant,effect of a mutation on the interaction
1,MDRSKENCISGPVKATAPVGGPKRVLVTQQFPCQNPLPVNSGQAQRVLCPSNSSQRIPLQAQKLVSSHKPVQNQKQKQLQATSVPHPVSRPLNNTQKSKQPLPSAPENNPEEELASKQKNEESKKRQWALEDFEIGRPLGKGKFGNVYLAREKQSKFILALKVLFKAQLEKAGVEHQLRREVEIQSHLRHPNILRLYNYFHDATRVYLILEYAPLGTVYRELQKLSKFDEQRTATYITELANALSYCHSKRVIHRDIKPENLLLGSAGELKIADFGWSVHAPSSRRTTLCGTLDYLPPEMIEGRMHDEKVDLWSLGVLCYEFLVGKPPFEANTYQETYKRISRVEFTFPDFVTEGARDLISRLLKHNPSQRPMLREVLEHPWITANSSKPSNCQNKESASKQS [G198N],decreasing interaction
